Results reported in US20250186541A1, “DLL3 TARGETING PEPTIDES AND CONSTRUCTS THEREOF” (MARIANA ONCOLOGY INC., priority 2023, published 2025).
Numbered stars: 1 amine (or outer) side, 2 acyl side, 3 side chain; on linkers, the order of the positions; unused ones are H or OH. Bridge positions count the residues as written; N and C are the ends. Square brackets hold non-standard residues; d marks the D form. Side chains are listed from the residue outwards. * marks the point of attachment. Ala(piperidin-4-yl) = O=C([C@H](CC1CCN([*:3])CC1)N[*:1])[*:2]; DOTA = O=C(O)CN1CCN(CC(=O)O)CCN(CC(=O)*)CCN(CC(=O)O)CC1; Phe(4-CF3) = N[C@@H](Cc1ccc(C(F)(F)F)cc1)C(=O)O; Trp(7-aza) = N[C@@H](Cc1c[nH]c2ncccc12)C(=O)O; γGlu = O=C(O)[C@H](CCC(=O)[*:2])N[*:1]; 1Nal = N[C@@H](Cc1cccc2ccccc12)C(=O)O; 2Nal = N[C@@H](Cc1ccc2ccccc2c1)C(=O)O; hPhe = N[C@@H](CCc1ccccc1)C(=O)O; tBuAla = CC(C)(C)C[C@H](N)C(=O)O; 3Pal = N[C@@H](Cc1cccnc1)C(=O)O; 4Pal = N[C@@H](Cc1ccncc1)C(=O)O; NMeQ = CN[C@@H](CCC(N)=O)C(=O)O; Cha = N[C@@H](CC1CCCCC1)C(=O)O; NMeL = CN[C@@H](CC(C)C)C(=O)O; Cba = N[C@@H](CC1CCC1)C(=O)O; Chg = N[C@H](C(=O)O)C1CCCCC1; dNle = CCCC[C@@H](N)C(=O)O; Nle = CCCC[C@H](N)C(=O)O; dNMeA = CN[C@H](C)C(=O)O; Ahx = NCCCCCC(=O)O

T1: Biotinylated human DLL3 (human, UniProt Q9NYJ7 27-492, biotinylated (site not stated))
T1 construct: also called Delta-like ligand 3; Delta Like Canonical Notch Ligand 3
T1 sequence (looked up): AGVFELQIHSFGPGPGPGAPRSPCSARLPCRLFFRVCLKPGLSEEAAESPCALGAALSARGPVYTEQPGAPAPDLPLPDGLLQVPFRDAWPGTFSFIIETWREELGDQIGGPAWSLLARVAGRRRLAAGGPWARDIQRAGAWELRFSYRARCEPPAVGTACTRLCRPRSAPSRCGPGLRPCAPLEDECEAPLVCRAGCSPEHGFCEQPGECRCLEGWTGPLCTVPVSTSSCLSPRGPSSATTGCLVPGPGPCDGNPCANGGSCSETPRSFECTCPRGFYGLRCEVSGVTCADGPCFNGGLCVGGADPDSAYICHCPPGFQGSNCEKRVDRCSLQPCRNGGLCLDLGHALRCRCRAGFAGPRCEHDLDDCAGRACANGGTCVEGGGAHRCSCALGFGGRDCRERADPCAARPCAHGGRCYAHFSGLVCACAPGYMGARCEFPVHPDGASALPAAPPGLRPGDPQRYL

B1: Cpd #64 (peptide)
peptide: Ac-MSDCWLQ[Trp(7-aza)]NCPFD[dK](DOTA)-NH2
modifications: disulfide 4-10
B2: Cpd #71 (peptide)
peptide: Ac-MSDCW[Chg]QWNCPFD[dK](DOTA)-NH2
modifications: disulfide 4-10
B3: Cpd #62 (peptide)
peptide: Ac-MSDCWLQ[2Nal]NCPFD[dK](DOTA)-NH2
modifications: disulfide 4-10
SMILES: CSCC[C@H](NC(C)=O)C(=O)N[C@@H](CO)C(=O)N[C@@H](CC(=O)O)C(=O)N[C@H]1CSSC[C@@H](C(=O)N2CCC[C@H]2C(=O)N[C@@H](Cc2ccccc2)C(=O)N[C@@H](CC(=O)O)C(=O)N[C@H](CCCCNC(=O)CN2CCN(CC(=O)O)CCN(CC(=O)O)CCN(CC(=O)O)CC2)C(N)=O)NC(=O)[C@H](CC(N)=O)NC(=O)[C@H](Cc2ccc3ccccc3c2)NC(=O)[C@H](CCC(N)=O)NC(=O)[C@H](CC(C)C)NC(=O)[C@H](Cc2c[nH]c3ccccc23)NC1=O
B4: Cpd #96 (peptide)
peptide: Ac-[Chg]SK(DOTA)CWLQWNCPFD-NH2
modifications: disulfide 4-10
SMILES: CC(=O)N[C@H](C(=O)N[C@@H](CO)C(=O)N[C@@H](CCCCNC(=O)CN1CCN(CC(=O)O)CCN(CC(=O)O)CCN(CC(=O)O)CC1)C(=O)N[C@H]1CSSC[C@@H](C(=O)N2CCC[C@H]2C(=O)N[C@@H](Cc2ccccc2)C(=O)N[C@@H](CC(=O)O)C(N)=O)NC(=O)[C@H](CC(N)=O)NC(=O)[C@H](Cc2c[nH]c3ccccc23)NC(=O)[C@H](CCC(N)=O)NC(=O)[C@H](CC(C)C)NC(=O)[C@H](Cc2c[nH]c3ccccc23)NC1=O)C1CCCCC1
B5: Cpd #107 (peptide)
peptide: Ac-[dNle][dS]DC[1Nal]LQWNCPFD[dK](DOTA)-NH2
modifications: disulfide 4-10
B6: Cpd #69 (peptide)
peptide: Ac-MSDCW[Cha]QWNCPFD[dK](DOTA)-NH2
modifications: disulfide 4-10
B7: Cpd #105 (peptide)
peptide: Ac-[Chg]SDC[1Nal]LQWNCPFD[dK](DOTA)-NH2
modifications: disulfide 4-10
B8: Cpd #67 (peptide)
peptide: Ac-MSDCW[tBuAla]QWNCPFD[dK](DOTA)-NH2
modifications: disulfide 4-10
B9: Cpd #94 (peptide)
peptide: Ac-[Chg]SDC[1Nal]LQWNC[dNMeA]FD[dK](DOTA)-NH2
modifications: disulfide 4-10
B10: Cpd #5 (peptide)
peptide: Ac-SDCWLQWNCPFD-NH2
modifications: disulfide 3-9
B11: Cpd #90 (peptide)
peptide: Ac-SDCWLQWK(DOTA)CPFD-NH2
modifications: disulfide 3-9
SMILES: CC(=O)N[C@@H](CO)C(=O)N[C@@H](CC(=O)O)C(=O)N[C@H]1CSSC[C@@H](C(=O)N2CCC[C@H]2C(=O)N[C@@H](Cc2ccccc2)C(=O)N[C@@H](CC(=O)O)C(N)=O)NC(=O)[C@H](CCCCNC(=O)CN2CCN(CC(=O)O)CCN(CC(=O)O)CCN(CC(=O)O)CC2)NC(=O)[C@H](Cc2c[nH]c3ccccc23)NC(=O)[C@H](CCC(N)=O)NC(=O)[C@H](CC(C)C)NC(=O)[C@H](Cc2c[nH]c3ccccc23)NC1=O
B12: Cpd #112 (peptide)
peptide: Ac-[Chg]SDC[1Nal]L[3Pal]WNCPFD[dK](DOTA)-NH2
modifications: disulfide 4-10
SMILES: CC(=O)N[C@H](C(=O)N[C@@H](CO)C(=O)N[C@@H](CC(=O)O)C(=O)N[C@H]1CSSC[C@@H](C(=O)N2CCC[C@H]2C(=O)N[C@@H](Cc2ccccc2)C(=O)N[C@@H](CC(=O)O)C(=O)N[C@H](CCCCNC(=O)CN2CCN(CC(=O)O)CCN(CC(=O)O)CCN(CC(=O)O)CC2)C(N)=O)NC(=O)[C@H](CC(N)=O)NC(=O)[C@H](Cc2c[nH]c3ccccc23)NC(=O)[C@H](Cc2cccnc2)NC(=O)[C@H](CC(C)C)NC(=O)[C@H](Cc2cccc3ccccc23)NC1=O)C1CCCCC1
B13: Cpd #111 (peptide)
peptide: Ac-[Chg]SDC[1Nal]L[Ala(piperidin-4-yl)]WNCPFD[dK](DOTA)-NH2
modifications: disulfide 4-10
B14: Cpd #77 (peptide)
peptide: Ac-[Chg]SDCWLQWNCPFD[dK](DOTA)-NH2
modifications: disulfide 4-10
B15: Cpd #113 (peptide)
peptide: Ac-[Chg]SDC[1Nal]L[4Pal]WNCPFD[dK](DOTA)-NH2
modifications: disulfide 4-10
SMILES: CC(=O)N[C@H](C(=O)N[C@@H](CO)C(=O)N[C@@H](CC(=O)O)C(=O)N[C@H]1CSSC[C@@H](C(=O)N2CCC[C@H]2C(=O)N[C@@H](Cc2ccccc2)C(=O)N[C@@H](CC(=O)O)C(=O)N[C@H](CCCCNC(=O)CN2CCN(CC(=O)O)CCN(CC(=O)O)CCN(CC(=O)O)CC2)C(N)=O)NC(=O)[C@H](CC(N)=O)NC(=O)[C@H](Cc2c[nH]c3ccccc23)NC(=O)[C@H](Cc2ccncc2)NC(=O)[C@H](CC(C)C)NC(=O)[C@H](Cc2cccc3ccccc23)NC1=O)C1CCCCC1
B16: Cpd #68 (peptide)
peptide: Ac-MSDCW[Nle]QWNCPFD[dK](DOTA)-NH2
modifications: disulfide 4-10
B17: Cpd #93 (peptide)
peptide: {DOTA-Ahx}-SDCWL[NMeQ]WNCPFD-NH2
modifications: disulfide 3-9
B18: Cpd #70 (peptide)
peptide: Ac-MSDCW[Cba]QWNCPFD[dK](DOTA)-NH2
modifications: disulfide 4-10
B19: Cpd #63 (peptide)
peptide: Ac-MSDCWLQ[hPhe]NCPFD[dK](DOTA)-NH2
modifications: disulfide 4-10
SMILES: CSCC[C@H](NC(C)=O)C(=O)N[C@@H](CO)C(=O)N[C@@H](CC(=O)O)C(=O)N[C@H]1CSSC[C@@H](C(=O)N2CCC[C@H]2C(=O)N[C@@H](Cc2ccccc2)C(=O)N[C@@H](CC(=O)O)C(=O)N[C@H](CCCCNC(=O)CN2CCN(CC(=O)O)CCN(CC(=O)O)CCN(CC(=O)O)CC2)C(N)=O)NC(=O)[C@H](CC(N)=O)NC(=O)[C@H](CCc2ccccc2)NC(=O)[C@H](CCC(N)=O)NC(=O)[C@H](CC(C)C)NC(=O)[C@H](Cc2c[nH]c3ccccc23)NC1=O
B20: Cpd #87 (peptide)
peptide: Ac-SDCWLK(DOTA)WNCPFD-NH2
modifications: disulfide 3-9
B21: Cpd #65 (peptide)
peptide: Ac-MSDCWLQ[Phe(4-CF3)]NCPFD[dK](DOTA)-NH2
modifications: disulfide 4-10
B22: Cpd #91 (peptide)
peptide: Ac-SK(DOTA)CWLQWNCPFD-NH2
modifications: disulfide 3-9
SMILES: CC(=O)N[C@@H](CO)C(=O)N[C@@H](CCCCNC(=O)CN1CCN(CC(=O)O)CCN(CC(=O)O)CCN(CC(=O)O)CC1)C(=O)N[C@H]1CSSC[C@@H](C(=O)N2CCC[C@H]2C(=O)N[C@@H](Cc2ccccc2)C(=O)N[C@@H](CC(=O)O)C(N)=O)NC(=O)[C@H](CC(N)=O)NC(=O)[C@H](Cc2c[nH]c3ccccc23)NC(=O)[C@H](CCC(N)=O)NC(=O)[C@H](CC(C)C)NC(=O)[C@H](Cc2c[nH]c3ccccc23)NC1=O
B23: Cpd #75 (peptide)
peptide: {hexanoic acid}-SDCWLQWNCPFD[dK](DOTA)-NH2
modifications: disulfide 3-9
B24: Cpd #108 (peptide)
peptide: Ac-[dA][dS]DC[1Nal]LQWNCPFD[dK](DOTA)-NH2
modifications: disulfide 4-10
B25: Cpd #82 (peptide)
peptide: Ac-[dE]SDCWLQWNCPFD[dK](DOTA)-NH2
modifications: disulfide 4-10
B26: Cpd #98 (peptide)
peptide: Ac-[Chg]SDCWK(DOTA)QWNCPFD-NH2
modifications: disulfide 4-10
SMILES: CC(=O)N[C@H](C(=O)N[C@@H](CO)C(=O)N[C@@H](CC(=O)O)C(=O)N[C@H]1CSSC[C@@H](C(=O)N2CCC[C@H]2C(=O)N[C@@H](Cc2ccccc2)C(=O)N[C@@H](CC(=O)O)C(N)=O)NC(=O)[C@H](CC(N)=O)NC(=O)[C@H](Cc2c[nH]c3ccccc23)NC(=O)[C@H](CCC(N)=O)NC(=O)[C@H](CCCCNC(=O)CN2CCN(CC(=O)O)CCN(CC(=O)O)CCN(CC(=O)O)CC2)NC(=O)[C@H](Cc2c[nH]c3ccccc23)NC1=O)C1CCCCC1
B27: Cpd #88 (peptide)
peptide: Ac-SDCWLQWNCPFD[dK]([γGlu-DOTA])-NH2
modifications: disulfide 3-9
B28: Cpd #106 (peptide)
peptide: Ac-[Chg][dS]DC[1Nal]LQWNCPFD[dK](DOTA)-NH2
modifications: disulfide 4-10
B29: Cpd #92 (peptide)
peptide: {DOTA-Ahx}-SDCW[NMeL]QWNCPFD-NH2
modifications: disulfide 3-9

Biological target: T1, Biotinylated human DLL3
Test: SPR, biotin-hDLL3 on SA chip

Row | Binder | Kd [nM] | binding result
1 | B1 | 20.1 | 
2 | B2 | 4.52 | 
3 | B3 | 2.5 | 
4 | B4 | 145 | 
5 | B5 | 1.9 | 
6 | B6 | 16.4 | 
7 | B7 | 0.59 | 
8 | B8 | 4.03 | 
9 | B9 | 0.54 | 
10 | B10 |  | no binding
11 | B11 | > 300 | 
12 | B12 | 2.56 | 
13 | B13 | 1.24 | 
14 | B14 | 7.4 | 
15 | B15 | 0.89 | 
16 | B16 | 15.8 | 
17 | B17 |  | no binding
18 | B18 | 6.95 | 
19 | B19 | 31.3 | 
20 | B20 | 33.3 | 
21 | B21 | 32.4 | 
22 | B22 | 95.7 | 
23 | B23 | 9.6 | 
24 | B24 | 2.89 | 
25 | B25 | 17.1 | 
26 | B26 | 93 | 
27 | B27 | 9.7 | 
28 | B28 | 1.2 | 
29 | B29 | 5.56 | 
